In patent US20220144956A1 (published 2022):
Where a chain is given by its changes, count along the chain named.

B1: H1.59 L1 XENP34515 (antibody, V domains shown)
VH: QLQVQESGPGLVKPSETLSLTCTVSGGSISNSYFSWGWIRQPPGKGLEWIGSFYYGENTYYNPSLKSRATISIDTSKSQFSLKLSSVTAADTAVYYCPRGPTMIRGVIDSWGQGTLVTVSS
VL: EIVLTQSPATLSLSPGERATLSCRASQSVRSYLAWYQQKPGQAPRLLIYDASNRATGIPARFSGSGSGTDFTLTISSLEPEDFAVYYCQQRSNWPPTFGQGTKVEIK
B2: H1.44 L1 XENP34500 (antibody, V domains shown)
VH: B1 VH with S52V, N58K
VL: B1 VL
B3: H1.76 L1 XENP34532 (antibody, V domains shown)
VH: B1 VH with N58K, A90E
VL: B1 VL
B4: H1.49 L1 XENP34505 (antibody, V domains shown)
VH: B1 VH with Y54H, N58K
VL: B1 VL
B5: H1.71 L1 XENP34527 (antibody, V domains shown)
VH: B1 VH with N58K, A69F
VL: B1 VL
B6: H1.72 L1 XENP34528 (antibody, V domains shown)
VH: B1 VH with N58K, A69V
VL: B1 VL
B7: H1.68 L1 XENP34524 (antibody, V domains shown)
VH: B1 VH with N58K, K66E
VL: B1 VL
B8: H1.63 L1 XENP34519 (antibody, V domains shown)
VH: B1 VH with N58K, Y60H
VL: B1 VL
B9: H1.53 L1 XENP34509 (antibody, V domains shown)
VH: B1 VH with Y55H, N58K
VL: B1 VL
B10: H1.41 L1 XENP34497 (antibody, V domains shown)
VH: B1 VH with S52E, N58K
VL: B1 VL
B11: H1.46 L1 XENP34502 (antibody, V domains shown)
VH: B1 VH with F53I, N58K
VL: B1 VL
B12: H1.57 L1 XENP34513 (antibody, V domains shown)
VH: B1 VH with E57S, N58K
VL: B1 VL
B13: H1.73 L1 XENP34529 (antibody, V domains shown)
VH: B1 VH with N58K, I73V
VL: B1 VL
B14: H1.39 L1 XENP34495 (antibody, V domains shown)
VH: B1 VH with P42H, N58K
VL: B1 VL
B15: H1.40 L1 XENP34496 (antibody, V domains shown)
VH: B1 VH with I50V, N58K
VL: B1 VL
B16: H1.66 L1 XENP34522 (antibody, V domains shown)
VH: B1 VH with N58K, N62A
VL: B1 VL
B17: H1.70 L1 XENP34526 (antibody, V domains shown)
VH: B1 VH with N58K, S67G
VL: B1 VL
B18: H1.45 L1 XENP34501 (antibody, V domains shown)
VH: B1 VH with S52Y, N58K
VL: B1 VL
B19: H1.69 L1 XENP34525 (antibody, V domains shown)
VH: B1 VH with N58K, K66Q
VL: B1 VL
B20: H1 L1.29 XENP34592 (antibody, V domains shown)
VH: B1 VH with N58K
VL: B1 VL with A60D
B21: H1 L1.20 XENP34583 (antibody, V domains shown)
VH: B1 VH with N58K
VL: B1 VL with D50E
B22: H1 L1.26 XENP34589 (antibody, V domains shown)
VH: B1 VH with N58K
VL: B1 VL with T56S
B23: H1 L1.28 XENP34591 (antibody, V domains shown)
VH: B1 VH with N58K
VL: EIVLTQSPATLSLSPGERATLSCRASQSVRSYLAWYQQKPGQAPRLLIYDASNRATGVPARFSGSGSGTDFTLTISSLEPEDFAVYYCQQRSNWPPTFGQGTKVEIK
B24: H1 L1.15 XENP34578 (antibody, V domains shown)
VH: B1 VH with N58K
VL: B1 VL with A34N
B25: H1 L1.17 XENP34580 (antibody, V domains shown)
VH: B1 VH with N58K
VL: B1 VL with A34T
B26: H1 L1.23 XENP34586 (antibody, V domains shown)
VH: B1 VH with N58K
VL: B1 VL with N53D
B27: H1 L1.41 XENP34604 (antibody, V domains shown)
VH: B1 VH with N58K
VL: B1 VL with S92A
B28: H1 L1.10 XENP34573 (antibody, V domains shown)
VH: B1 VH with N58K
VL: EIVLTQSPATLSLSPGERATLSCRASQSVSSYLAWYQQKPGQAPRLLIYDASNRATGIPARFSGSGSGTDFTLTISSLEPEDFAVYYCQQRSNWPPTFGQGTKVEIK
B29: H1 L1.38 XENP34601 (antibody, V domains shown)
VH: B1 VH with N58K
VL: B1 VL with R91S
B30: H1 L1.31 XENP34594 (antibody, V domains shown)
VH: B1 VH with N58K
VL: B1 VL with S77R
B31: H1 L1.30 XENP34593 (antibody, V domains shown)
VH: B1 VH with N58K
VL: B1 VL with D70E
B32: H1 L1.18 XENP34581 (antibody, V domains shown)
VH: B1 VH with N58K
VL: B1 VL with Q42K
B33: H1 L1.24 XENP34587 (antibody, V domains shown)
VH: B1 VH with N58K
VL: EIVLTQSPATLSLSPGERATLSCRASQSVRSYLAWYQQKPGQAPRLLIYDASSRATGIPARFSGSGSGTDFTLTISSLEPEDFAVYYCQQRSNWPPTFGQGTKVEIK
B34: H1 L1.13 XENP34576 (antibody, V domains shown)
VH: B1 VH with N58K
VL: B1 VL with Y32H
B35: H1 L1.25 XENP34588 (antibody, V domains shown)
VH: B1 VH with N58K
VL: B1 VL with N53T
B36: H1 L1.16 XENP34579 (antibody, V domains shown)
VH: B1 VH with N58K
VL: B1 VL with A34S
B37: H1 L1.43 XENP34606 (antibody, V domains shown)
VH: B1 VH with N58K
VL: B1 VL with S92N
B38: H1 L1.34 XENP34597 (antibody, V domains shown)
VH: B1 VH with N58K
VL: B1 VL with E79Q, P80S
B39: H1 L1.37 XENP34600 (antibody, V domains shown)
VH: B1 VH with N58K
VL: B1 VL with R91K
B40: H1 L1.11 XENP34574 (antibody, V domains shown)
VH: B1 VH with N58K
VL: B1 VL with S31N
B41: H1 L1.39 XENP34602 (antibody, V domains shown)
VH: B1 VH with N58K
VL: B1 VL with R91Q
B42: H1 L1.21 XENP34584 (antibody, V domains shown)
VH: B1 VH with N58K
VL: B1 VL with D50G
B43: H1 L1.8 XENP34571 (antibody, V domains shown)
VH: B1 VH with N58K
VL: B1 VL with R30K
B44: H1 L1.33 XENP34596 (antibody, V domains shown)
VH: B1 VH with N58K
VL: B1 VL with P80S
B45: H1 L1.14 XENP34577 (antibody, V domains shown)
VH: B1 VH with N58K
VL: B1 VL with Y32N
B46: H1 L1.27 XENP34590 (antibody, V domains shown)
VH: B1 VH with N58K
VL: B1 VL with G57S
B47: H1 L1.19 XENP34582 (antibody, V domains shown)
VH: B1 VH with N58K
VL: B1 VL with Q42L

The binders below were run against T1, human TGFßRII (antigen of the Octet experiments) (human, UniProt P37173 23-166) (assay: BLI (Octet)).
T1 sequence (P37173 23-166): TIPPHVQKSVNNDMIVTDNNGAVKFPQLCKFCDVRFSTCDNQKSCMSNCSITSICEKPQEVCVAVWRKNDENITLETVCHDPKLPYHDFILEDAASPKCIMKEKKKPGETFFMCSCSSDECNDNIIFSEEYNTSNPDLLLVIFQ

Row | Kd | Binder
1 | 0.507 nM | B1
2 | 2.95 nM | B2
3 | 0.829 nM | B3
4 | 0.338 nM | B4
5 | 0.588 nM | B5
6 | 0.42 nM | B6
7 | 1.5 nM | B7
8 | 5.28 nM | B8
9 | 0.366 nM | B9
10 | 18.9 nM | B10
11 | 3.2 nM | B11
12 | 7.71 nM | B12
13 | 0.713 nM | B13
14 | 0.425 nM | B14
15 | 0.338 nM | B15
16 | 0.623 nM | B16
17 | 0.789 nM | B17
18 | 1.01 nM | B18
19 | 1.41 nM | B19

Biological target: T1, human TGFßRII (antigen of the Octet …)
Test: BLI (Octet)
Remark: another data set of the same source

Row | Kd | Binder
20 | 0.589 nM | B20
21 | 2.24 nM | B21
22 | 0.99 nM | B22
23 | 0.891 nM | B23
24 | 2.48 nM | B24
25 | 0.622 nM | B25
26 | 0.479 nM | B26
27 | 2.49 nM | B27
28 | 10.7 nM | B28
29 | 24.5 nM | B29
30 | 0.706 nM | B30
31 | 0.668 nM | B31
32 | 0.831 nM | B32
33 | 0.644 nM | B33
34 | 1.19 nM | B34
35 | 0.921 nM | B35
36 | 0.464 nM | B36
37 | 1.08 nM | B37
38 | 1.61 nM | B38
39 | 2.87 nM | B39
40 | 0.597 nM | B40
41 | 21 nM | B41
42 | 0.429 nM | B42
43 | 1.11 nM | B43
44 | 0.873 nM | B44
45 | 1.26 nM | B45
46 | 0.92 nM | B46
47 | 0.905 nM | B47
